Test results as given in doi:10.1101/775726, “How the dual PDZ domain from Postsynaptic density protein 95 clusters ion channels and receptors” (bioRxiv, 2019).

Assays:
Experiment in all cases: ITC; 5 mM RRESEI in the syringe, PDZ1-2, PDZ1 or PDZ2 in the cell at nominal 0.13 mM; 25°C; 20 mM Tris-HCl, 150 mM NaCl, pH8.5; MicroCal VP-ITC; PDZ1-2 fitted assuming a single class of sites
Details in all cases: both partners purified
[1] = target: T1, PSD-95 PDZ1-2 dual domain (residues 55-249) (human, UniProt P78352 55-249)
T1 construct: PSD-95 (Disks large homologue 4, SAP-90), human, residues 55-249 of UniProt P78352 [98-292 of P78352-2]; PDZ1, 8-residue linker, PDZ2; cleaved construct 20.8 kDa; ends printed as NGT- and -SNA; Vector pOPINF; SASBDB entries: apo SASDGE5, SASDGF5, SASDGG5; with GSH SASDGH5, SASDGJ5, SASDGK5; also called apo:PDZ1-2; dual PDZ domain; source: E. coli BL21(DE3), purified (Ni-NTA, HRV 3C tag cleavage, …)
T1 sequence (P78352 other isoform, or with tags, fused parts or gaps): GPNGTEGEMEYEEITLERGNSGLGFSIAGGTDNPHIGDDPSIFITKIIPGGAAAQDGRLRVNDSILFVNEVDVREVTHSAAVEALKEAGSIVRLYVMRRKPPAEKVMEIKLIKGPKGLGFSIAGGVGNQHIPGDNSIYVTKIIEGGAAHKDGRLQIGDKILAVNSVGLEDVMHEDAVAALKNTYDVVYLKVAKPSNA

[2] = target: T2, PSD-95 PDZ1 domain (residues 55-152) (human, UniProt P78352 55-152)
T2 construct: Gly-Pro left at the N-terminus after HRV 3C cleavage of the tag; PSD-95, human, PDZ1, residues 55-152 of UniProt P78352 [98-195 of P78352-2]; Vector pOPINF; source: E. coli BL21(DE3), purified (Ni-NTA, HRV 3C tag cleavage, negative Ni-NTA, Superdex200 SEC); not shown: His6, N-terminal, cleaved
T2 sequence (P78352 other isoform, or with tags, fused parts or gaps): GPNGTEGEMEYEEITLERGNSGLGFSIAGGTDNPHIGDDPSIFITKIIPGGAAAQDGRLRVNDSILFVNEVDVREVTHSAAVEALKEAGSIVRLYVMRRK

[3] = target: T3, PSD-95 PDZ2 domain (residues 154-249) (human, UniProt P78352 154-249)
T3 construct: Gly-Pro left at the N-terminus after HRV 3C cleavage of the tag; PSD-95, human, PDZ2, residues 154-249 of UniProt P78352 [197-292 of P78352-2]; Vector pOPINF; source: E. coli BL21(DE3), purified (Ni-NTA, HRV 3C tag cleavage, negative Ni-NTA, Superdex200 SEC); not shown: His6, N-terminal, cleaved
T3 sequence (P78352 other isoform, or with tags, fused parts or gaps): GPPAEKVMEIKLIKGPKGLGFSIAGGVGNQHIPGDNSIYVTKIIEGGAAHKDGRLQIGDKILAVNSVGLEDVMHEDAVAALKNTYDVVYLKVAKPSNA

- Kd [1]: 90 ± 9 µM
- Kd [2]: 6 ± 6 µM
- Kd [3]: 60 ± 2 µM
B1: RRESEI peptide (last 6 residues of Kir2.1) (peptide)
peptide: RRESEI
notes: last 6 residues of the inwardly rectifying potassium channel Kir2.1 (C-terminus, type I PDZ motif ESEI); also called RRESEI ligand; ligand peptide; source: synthetic peptide, 98% purity (Peptide Protein Research Ltd.)
